Data reported in article PMC10638201, “Application of electrospun chitosan-based nanofibers as immobilization matrix for biomolecules” (Applied Microbiology and Biotechnology, 2023).

Substrate: COc1cc(CO)ccc1O
Assay: purified protein
Type: biochemical, Rhodococcus jostii
Settings: free EUGO, O2 as co-substrate (air), ambient conditions, 50 mM Glycine·NaOH buffer, pH 8.0, N = 1, called preliminary

B1: eugenol oxidase (EUGO); 6xHis-eugenol-oxidase-StrepTag-II (Rhodococcus jostii RHA1) (protein)
chain: MTRTLPPGVSDERFDAALQRFRDVVGDKWVLSTADELEAFRDPYPVGAAEANLPSAVVSPESTEQVQDIVRIANEYGIPLSPVSTGKNNGYGGAAPRLSGSVIVKTGERMNRILEVNEKYGYALLEPGVTYFDLYEYLQSHDSGLMLDCPDLGWGSVVGNTLDRGVGYTPYGDHFMWQTGLEVVLPQGEVMRTGMGALPGSDAWQLFPYGFGPFPDGMFTQSNLGIVTKMGIALMQRPPASQSFLITFDKEEDLEQIVDIMLPLRINMAPLQNVPVLRNIFMDAAAVSKRTEWFDGDGPMPAEAIERMKKDLDLGFWNFYGTLYGPPPLIEMYYGMIKEAFGKIPGARFFTHEERDDRGGHVLQDRHKINNGIPSLDELQLLDWVPNGGHIGFSPVSAPDGREAMKQFEMVRNRANEYNKDYAAQFIIGLREMHHVCLFIYDTAIPEAREEILQMTKVLVREAAEAGYGEYRTHNALMDDVMATFNWGDGALLKFHEKIKDALDPNGIIAPGKSGIWSQRFRGQNL
notes: N-terminal His6 tag and C-terminal Strep-tag II, tags kept; gene from vector pEUGOA cloned into pET-28a(+) (pET-28-eugo-STII); E. coli BL21 (DE3) gold; Ni Sepharose purified; dimer, theoretical 124 kDa
- Km: 80 ± 20 µM
- kcat: 5 ± 1 s⁻¹
